In publication PMC4737164, “DNA recognition for virus assembly through multiple sequence-independent interactions with a helix-turn-helix motif”:
Substitutions are numbered along the chain they refer to.

Columns and labels:
[1] = target: T1, SF6 small terminase DBD K26A (Bacillus phage SF6, UniProt P68928 1-68, K26A); experiment: SPR; McGhee-von Hippel, site size 3 bp; 20 mM HEPES, 150 mM KCl (300 mM in second ReDCaT), pH 7.0, +0.05% Tween 20 for SPR; ReDCaT 20 uM protein; AUC 20 C; NMR 20 mM MES, 150 mM KCl, pH 6.0, 25 C; details: protein: recombinant; tags: C-terminal 3C site-His tag, cleaved; label: 5'-biotin strand 1 (SPR); none in NMR; blunt
T1 sequence: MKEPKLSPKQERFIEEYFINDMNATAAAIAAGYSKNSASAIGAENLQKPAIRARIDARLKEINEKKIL

[2] = target: T2, SF6 small terminase (GP1) DBD wild type (Bacillus phage SF6, UniProt P68928 1-68); experiment: SPR; McGhee-von Hippel, site size 3 bp; not saturated; 20 mM HEPES, 150 mM KCl (300 mM in second ReDCaT), pH 7.0, +0.05% Tween 20 for SPR; ReDCaT 20 uM protein; AUC 20 C; NMR 20 mM MES, 150 mM KCl, pH 6.0, 25 C; details: protein: recombinant, tags: C-terminal 3C site-His tag, cleaved, label: 5'-biotin strand 1 (SPR), blunt
T2 sequence: T1 sequence with A26K

[3] = target: T3, SF6 small terminase DBD K48A (Bacillus phage SF6, UniProt P68928 1-68, K48A); experiment: SPR; up to 1500 uM protein; 20 mM HEPES, 150 mM KCl (300 mM in second ReDCaT), pH 7.0, +0.05% Tween 20 for SPR; ReDCaT 20 uM protein; AUC 20 C; NMR 20 mM MES, 150 mM KCl, pH 6.0, 25 C; details: protein: recombinant; tags: C-terminal 3C site-His tag, cleaved; label: 5'-biotin strand 1 (SPR); none in NMR; blunt
T3 sequence: T1 sequence with A26K, K48A

[4] = target: T2, SF6 small terminase (GP1) DBD wild type; experiment: AUC; 1 mM protein; 5 proteins per DNA, not saturated; 20 mM HEPES, 150 mM KCl (300 mM in second ReDCaT), pH 7.0, +0.05% Tween 20 for SPR; ReDCaT 20 uM protein; AUC 20 C; NMR 20 mM MES, 150 mM KCl, pH 6.0, 25 C; details: protein: recombinant; tags: C-terminal 3C site-His tag, cleaved; label: 5'-TAMRA strand 1; blunt
[5] = target: T2, SF6 small terminase (GP1) DBD wild type; experiment: AUC; 2-3 proteins per DNA, saturated; 20 mM HEPES, 150 mM KCl (300 mM in second ReDCaT), pH 7.0, +0.05% Tween 20 for SPR; ReDCaT 20 uM protein; AUC 20 C; NMR 20 mM MES, 150 mM KCl, pH 6.0, 25 C; details: protein: recombinant; tags: C-terminal 3C site-His tag, cleaved; label: 3'-ATTO 647N strand 1; blunt
[6] = target: T2, SF6 small terminase (GP1) DBD wild type; experiment: SPR; 150 mM KCl; superstoichiometric, low affinity; 20 mM HEPES, 150 mM KCl (300 mM in second ReDCaT), pH 7.0, +0.05% Tween 20 for SPR; ReDCaT 20 uM protein; AUC 20 C; NMR 20 mM MES, 150 mM KCl, pH 6.0, 25 C; details: protein: recombinant; tags: C-terminal 3C site-His tag, cleaved; label: 5'-biotin strand 3; nicked 50 bp
[7] = target: T2, SF6 small terminase (GP1) DBD wild type; experiment: SPR; 300 mM KCl; not significantly changed vs P6/F3; 20 mM HEPES, 150 mM KCl (300 mM in second ReDCaT), pH 7.0, +0.05% Tween 20 for SPR; ReDCaT 20 uM protein; AUC 20 C; NMR 20 mM MES, 150 mM KCl, pH 6.0, 25 C; details: protein: recombinant; tags: C-terminal 3C site-His tag, cleaved; label: 5'-biotin strand 3; nicked 50 bp
[8] = target: T2, SF6 small terminase (GP1) DBD wild type; experiment: AUC; 1:1; Kd stated in mM range; 20 mM HEPES, 150 mM KCl (300 mM in second ReDCaT), pH 7.0, +0.05% Tween 20 for SPR; ReDCaT 20 uM protein; AUC 20 C; NMR 20 mM MES, 150 mM KCl, pH 6.0, 25 C; details: protein: recombinant; tags: C-terminal 3C site-His tag, cleaved; label: 5'-6-FAM in AUC; hairpin, 5 bp, 1 nt 5' overhang
[9] = target: T2, SF6 small terminase (GP1) DBD wild type; experiment: SPR; 300 mM KCl; increased, approaching F5; 20 mM HEPES, 150 mM KCl (300 mM in second ReDCaT), pH 7.0, +0.05% Tween 20 for SPR; ReDCaT 20 uM protein; AUC 20 C; NMR 20 mM MES, 150 mM KCl, pH 6.0, 25 C; details: protein: recombinant; tags: C-terminal 3C site-His tag, cleaved; label: 5'-biotin strand 3; nicked
[10] = target: T2, SF6 small terminase (GP1) DBD wild type; experiment: SPR; 300 mM KCl; above-average density; 20 mM HEPES, 150 mM KCl (300 mM in second ReDCaT), pH 7.0, +0.05% Tween 20 for SPR; ReDCaT 20 uM protein; AUC 20 C; NMR 20 mM MES, 150 mM KCl, pH 6.0, 25 C; details: protein: recombinant; tags: C-terminal 3C site-His tag, cleaved; label: 5'-biotin strand 3; nicked 50 bp
[11] = target: T2, SF6 small terminase (GP1) DBD wild type; experiment: AUC; 1.5 mM protein; 1:1; Kd stated in mM range; 20 mM HEPES, 150 mM KCl (300 mM in second ReDCaT), pH 7.0, +0.05% Tween 20 for SPR; ReDCaT 20 uM protein; AUC 20 C; NMR 20 mM MES, 150 mM KCl, pH 6.0, 25 C; details: protein: recombinant; tags: C-terminal 3C site-His tag, cleaved; label: 3'-ATTO 647N in AUC; hairpin, 5 bp, TTTT loop

B1: 20-bp linker dsDNA (dsDNA)
DNA 1: GCAGGAGGACGTAGGGTAGG
DNA 2: CCTACCCTACGTCCTCCTGC
Kd [1]: 3080 ± 30 µM
Kd ([2]; none in NMR): 920 ± 10 µM
binding result [3]: no binding

B2: 30-bp AUC DNA (dsDNA)
DNA 1: ATAGAAAAAACCTCCTTAAAACTATATTTG
DNA 2: CAAATATAGTTTTAAGGAGGTTTTTTCTAT
binding result [4]: binds

B3: 11-bp DNA (dsDNA)
DNA 1: GCCTACCCTAC
DNA 2: GTAGGGTAGGC
binding result [5]: binds

B4: P6 (boxA) (dsDNA)
DNA 1: ATTAGGTTTATATAAGGTTTTATCATTCAG
DNA 2: CTGAATGATAAAACCTTATATAAACCTAATCCTACCCTACGTCCTCCTGC
DNA 3: GCAGGAGGACGTAGGGTAGG
binding result [6]: binds

B5: P6_F3 (dsDNA)
DNA 1: B4 DNA 1 with C24A, A25C, T26A
DNA 2: B4 DNA 2 with A5T, T6G, G7T
DNA 3: GCAGGAGGACGTAGGGTAGG
binding result [7]: binds

B6: 18C-hairpin (structured_DNA)
DNA 1: AGTAGG
DNA 2: CCTAC
modifications: 18C spacer joins 3' end of strand 1 to 5' end of strand 2
binding result [8]: binds

B7: P8_F5 (dsDNA)
DNA 1: TTTCTATGGGAGAAGTAAACCTAAACTATCTCCAAA
DNA 2: TTTGGAGATAGTTTAGGTTTACTTCTCCCATAGAAACCTACCCTACGTCCTCCTGC
DNA 3: GCAGGAGGACGTAGGGTAGG
binding result [9]: binds

B8: F3 (S3) (dsDNA)
DNA 1: ATTAGGTTTATATAAGGTTTTAATTAGGTT
DNA 2: AACCTAATTAAAACCTTATATAAACCTAATCCTACCCTACGTCCTCCTGC
DNA 3: GCAGGAGGACGTAGGGTAGG
binding result [10]: binds

B9: F5 (S5) (dsDNA)
DNA 1: TTTTATGAAAGAACCTAAACTATCTCCAAA
DNA 2: TTTGGAGATAGTTTAGGTTCTTTCATAAAACCTACCCTACGTCCTCCTGC
DNA 3: GCAGGAGGACGTAGGGTAGG
binding result [10]: binds

B10: 30-bp linker dsDNA (dsDNA)
DNA 1: GAGACCTGGAACGCGATCATTGGCAGCACG
DNA 2: CGTGCTGCCAATGATCGCGTTCCAGGTCTC
Kd [2]: 1850 ± 20 µM

B11: F10 (S10) (dsDNA)
DNA 1: TTGGGGCAGAAAACTTACAGAAACCAGCTA
DNA 2: TAGCTGGTTTCTGTAAGTTTTCTGCCCCAACCTACCCTACGTCCTCCTGC
DNA 3: GCAGGAGGACGTAGGGTAGG
binding result [10]: binds

B12: 14-nt hairpin (structured_DNA)
DNA: GTAGGTTTTCCTAC
binding result [11]: binds
